Source: publication doi:10.1101/705459 (bioRxiv, 2019)

T1: CMG2-GST-biotin (human CMG2 vWA domain 40-217, [change], [change], GST fusion, biotin-labelled) (human, UniProt P58335 40-217)
T1 chain: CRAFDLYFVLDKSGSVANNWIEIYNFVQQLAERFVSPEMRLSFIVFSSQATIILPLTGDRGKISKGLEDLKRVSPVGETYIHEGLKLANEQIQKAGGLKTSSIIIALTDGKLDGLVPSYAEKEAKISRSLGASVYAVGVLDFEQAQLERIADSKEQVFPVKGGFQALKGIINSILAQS

T2: CMG2-488 (human CMG2 vWA domain 40-217, [change], [change], AlexaFluor 488) (human, UniProt P58335 40-217)
T2 chain: T1 chain

B1: CMG2-biotin (human CMG2 vWA domain 40-217, [change], [change], biotin-labelled) (domain or fragment)
chain: T1 chain
B2: Peptide S16 (canstatin-derived 15-mer) (peptide)
peptide: PAIAIAVHSQDVSIP
B3: Peptide U12 (canstatin-derived 15-mer) (peptide)
peptide: VSIGYLLVKHSQTDQ

How the values were obtained:
[1] = biological target: B2; test: peptide or protein array
[2] = biological target: B3; test: peptide or protein array
[3] = biological target: T1, CMG2-GST-biotin (human CMG2 vWA domain …); test: BLI
[4] = biological target: T2, CMG2-488 (human CMG2 vWA domain 40-217, …); test: FRET or BRET

Binder	binding result [1]	binding result [2]	Kd [3] [µM]	koff [3] [s⁻¹]	kon [3] [M⁻¹ s⁻¹]	IC50 [4] [µM]	Kd [4] [µM]
B1	binds	binds					
B2			0.4	~0.0001	~200	2.7	0.1 ± 0.055
B3			80			35	
